Assay results from article PMC4660199 (Nature Communications, 2015).
Blank lines part the entries; values can stand above or below the binder they belong to. Where no end group is shown, it is not given here.

Assays:
Settings in all cases: both partners purified
[1] = target: T1, A3CT (Alb3 C-terminal tail) produced as His6-Trx fusion for NMR (UniProt Q8LBP4 363-462, 15N,13C labelled where it is the observed partner in NMR); assay: NMR titration; 1H,15N HSQC chemical shift perturbations of the labelled partner on stepwise addition of the unlabelled ligand, 298 K, 20 mM Na-phosphate (pH 6.5), 150 mM NaCl
T1 construct: Alb3 insertase C-terminal tail; the A3CT constructs encode residues 363-462; this one is used for all NMR rows; also called Trx–A3CT
T1 sequence (looked up): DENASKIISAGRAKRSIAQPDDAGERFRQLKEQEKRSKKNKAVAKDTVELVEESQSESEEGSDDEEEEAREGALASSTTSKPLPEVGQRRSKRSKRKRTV

full-length cpSRP43 = target: T2, full-length cpSRP43 (UniProt O22265 57-373); assay: ITC; VP-ITC, 20 °C, 20 mM Hepes (pH 7.5), 150 mM NaCl, 5 mM MgCl2, 0.25 mM TCEP; 0.01–0.1 mM in the cell, 0.1–1.0 mM in the syringe; duplicate or triplicate
T2 construct: cpSRP43, the 43-kDa subunit of the chloroplast signal recognition particle (CD1, Ank1-4, CD2, CD3); called full-length in the results; the chloroplast transit peptide may be absent from the recombinant protein (surmise); also called cpSRP43 wild-type; source: E. coli Rosetta (DE3) pLysS, purified (HisTrap, size-exclusion chromatography)

cpSRP43 CD2CD3 [2] = target: T3, cpSRP43 CD2CD3 (UniProt O22265 264-373, 15N,13C labelled where it is the observed partner in NMR); assay: SAXS; CD2CD3 alone and with 7 × molar excess of A3CT IV, 298 K
T3 construct: cpSRP43 chromodomains 2 and 3, residues 264-373; His6-Trx is joined through a cleavable TEV site; In the crystal structure the same range stands inside the fusion m15; also called cpSRP43 CD2CD3 deletion construct; source: E. coli Rosetta2 pLysS, purified (as His6-Trx fusion with a cleavable TEV site; Superdex75)
T3 sequence (looked up): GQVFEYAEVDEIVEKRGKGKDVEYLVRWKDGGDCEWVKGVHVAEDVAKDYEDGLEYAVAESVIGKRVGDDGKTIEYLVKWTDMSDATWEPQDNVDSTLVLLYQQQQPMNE

cpSRP43 CD2CD3 [3] = target: T3, cpSRP43 CD2CD3; assay: crystal structure; His6–Trx–CD2CD3–(GS)3–A3CT IV on one chain, 2.8 Å, two molecules in the asymmetric unit; 20% PEG 3350, 0.2 M Ca(OAc)2, 18 °C

B1: cpSRP43 CD3 (domain or fragment, UniProt O22265 316-373, looked up)
chain: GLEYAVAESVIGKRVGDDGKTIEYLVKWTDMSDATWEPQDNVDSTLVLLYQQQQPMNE
notes: Gly316 is the N-terminal residue in the CD3 constructs; also called CD3 only; cpSRP43 CD3 deletion construct; source: E. coli Rosetta2 pLysS, purified (as His6-Trx fusion with a cleavable TEV site; Superdex75); not shown: His6, N-terminal, cleaved; thioredoxin (Trx), N-terminal, cleaved
- binding result [1]: binds

- Kd (full-length cpSRP43): 150 µM
B2: A3CT motif II peptide (peptide)
chain: IISAGRAKRSI
modifications: The exact ends of the peptide are not printed. 369-379 is the region the text gives as including motif II, so the assayed peptide may be longer. Terminal chemistry is not stated.

- binding result (cpSRP43 CD2CD3 [2]): binds
B3: A3CT IV peptide (peptide, UniProt Q8LBP4 434-461, looked up)
peptide: GALASSTTSKPLPEVGQRRSKRSKRKRT
modifications: also: 15N,13C labelled where it is the observed NMR partner
notes: Alb3 C-terminal 28 residues including motif IV, residues 434-461 (holds 454-KRSKRKR-460); The ITC methods also say that peptides were purchased from PSL; also called A3CT motif IV; motif IV; source: E. coli BL21, purified (His6-GST fusion, TEV cleavage, HisTrap, Superdex75); not shown: His6, N-terminal, cleaved; GST, N-terminal, cleaved

- binding result (cpSRP43 CD2CD3 [3]): binds
B4: A3CT IV (residues 440–461) as joined to CD2CD3 in the fusion construct (peptide, UniProt Q8LBP4 440-461, looked up)
peptide: TTSKPLPEVGQRRSKRSKRKRT
notes: Alb3 C-terminal tail motif IV, residues 440-461; residues 453-461 are ordered in the structure, 454-KRSKRKR-460 is threaded into CD3; Stood on one chain with CD2CD3 through a (GS)3 linker; also called A3CT motif IV; motif IV; source: E. coli Rosetta2 (DE3) pLysS, purified as part of His6–Trx–CD2CD3–IV
